Data from article PMC6445466, “Structural determination of the complement inhibitory domain of Borrelia burgdorferi BBK32 provides insight into classical pathway complement evasion by Lyme disease spirochetes” (PLoS Pathogens, 2019).
Changes are numbered by the printed parent chain. Names may count otherwise.

Legend:
[1] = molecular target: T1, human C1r, full-length enzyme (human, UniProt P00736 18-705); assay: cell-based or functional assay
T1 sequence: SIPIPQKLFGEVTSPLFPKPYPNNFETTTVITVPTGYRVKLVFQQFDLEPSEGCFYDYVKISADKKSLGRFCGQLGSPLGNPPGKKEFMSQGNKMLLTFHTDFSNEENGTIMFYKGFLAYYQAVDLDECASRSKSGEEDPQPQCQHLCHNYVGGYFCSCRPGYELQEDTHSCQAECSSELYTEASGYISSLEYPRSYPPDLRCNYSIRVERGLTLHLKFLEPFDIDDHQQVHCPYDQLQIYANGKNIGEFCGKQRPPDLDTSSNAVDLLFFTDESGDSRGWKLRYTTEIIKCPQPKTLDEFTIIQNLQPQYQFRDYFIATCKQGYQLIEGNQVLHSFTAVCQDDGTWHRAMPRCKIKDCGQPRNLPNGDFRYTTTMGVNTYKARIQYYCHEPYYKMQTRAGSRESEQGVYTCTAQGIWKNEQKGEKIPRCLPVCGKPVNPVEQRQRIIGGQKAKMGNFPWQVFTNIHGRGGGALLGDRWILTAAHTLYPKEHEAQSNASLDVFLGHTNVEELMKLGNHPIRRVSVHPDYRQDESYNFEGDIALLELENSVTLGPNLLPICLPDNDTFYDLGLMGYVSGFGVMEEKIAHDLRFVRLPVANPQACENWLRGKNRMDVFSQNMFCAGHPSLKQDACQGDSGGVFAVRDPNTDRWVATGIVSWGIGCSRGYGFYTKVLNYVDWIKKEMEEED

[2] = molecular target: T2, human C1r, full-length enzyme (human, UniProt P00736 18-705); assay: SPR; Biacore T200, 25°C; borrelial protein immobilised by amine coupling; C1r as analyte, single-cycle kinetics, five-fold dilution series 1.6 to 1000 nM; HBS-T with 5 mM CaCl2; 1:1 kinetic fit; triplicate; conditions: both partners purified
T2 construct: complement C1r, human, 92 kDa, CUB1-EGF-CUB2-CCP1-CCP2-SP; bought as purified full-length enzyme; source: bought: Complement Technology (Tyler, TX), purified
T2 sequence: T1 sequence

[3] = molecular target: T3, C1r_(CCP1-CCP2-SP-auto) (autolytic fragment of human C1r, Leu-300 to Asp-705) (human, UniProt P00736 300-705); assay: SPR; Biacore T200, 25 °C, BBK32(206-348) immobilised; C1r fragments as analytes, single-cycle as for C1r, 0.8 to 500 nM; 1:1 Langmuir fit; conditions: both partners purified
T3 construct: complement C1r, human, residues Leu-300 to Asp-705 by mass spectrometry: last six residues of CUB2 and all of CCP1-CCP2-SP; Runs as one 55 kDa band on non-reducing SDS-PAGE; also called 55 kDa band; autolytic C1r fragment; source: autolytic digestion of bought purified C1r (Complement Tech) overnight at 37 °C; used in the digestion mix (SEC) and purified (SPR)
T3 sequence: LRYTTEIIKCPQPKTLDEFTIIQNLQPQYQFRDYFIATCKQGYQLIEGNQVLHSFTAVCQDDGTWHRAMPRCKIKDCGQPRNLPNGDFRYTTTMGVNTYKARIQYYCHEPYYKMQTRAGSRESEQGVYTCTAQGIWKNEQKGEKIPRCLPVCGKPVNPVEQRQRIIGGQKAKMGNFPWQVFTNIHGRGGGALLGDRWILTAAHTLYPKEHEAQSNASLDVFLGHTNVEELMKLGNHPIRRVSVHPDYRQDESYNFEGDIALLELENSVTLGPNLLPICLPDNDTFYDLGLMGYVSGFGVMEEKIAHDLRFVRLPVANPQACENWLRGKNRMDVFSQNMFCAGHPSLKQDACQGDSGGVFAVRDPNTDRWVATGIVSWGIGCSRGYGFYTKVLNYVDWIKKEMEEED

[4] = molecular target: T4, His-C1r-CCP2-SP (residues 376-705) (human, UniProt P00736 376-705); assay: as above; conditions: both partners purified
T4 construct: complement C1r, human, CCP2-SP domains, residues 376-705 as defined by UniProt P00736
T4 sequence: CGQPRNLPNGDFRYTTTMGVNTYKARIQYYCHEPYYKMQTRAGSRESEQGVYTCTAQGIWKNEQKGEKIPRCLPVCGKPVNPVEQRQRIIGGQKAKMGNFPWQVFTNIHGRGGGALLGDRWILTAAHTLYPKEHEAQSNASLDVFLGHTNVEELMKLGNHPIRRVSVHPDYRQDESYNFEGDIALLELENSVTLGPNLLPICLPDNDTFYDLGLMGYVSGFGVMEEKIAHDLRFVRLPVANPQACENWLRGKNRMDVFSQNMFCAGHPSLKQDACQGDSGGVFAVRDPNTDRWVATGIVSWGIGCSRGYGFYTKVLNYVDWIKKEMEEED

[5] = molecular target: T5, C1r CCP1-CCP2-SP-auto, autolytic fragment of human C1r (Leu-300 to Asp-705) (human, UniProt P00736 300-705); assay: SPR; Biacore T200, 25°C; BBK32(206-348) immobilised by amine coupling; C1r fragments as analytes, single-cycle kinetics as for C1r, 0.8 to 500 nM; 1:1 kinetic fit; triplicate; conditions: both partners purified
T5 construct: complement C1r, human, residues Leu-300 to Asp-705 by mass spectrometry: last six residues of CUB2 and the whole of CCP1-CCP2-SP; Migrates as one 55 kDa band on non-reducing SDS-PAGE; also called 55 kDa fragment; source: autolytic digestion of bought C1r (Complement Tech) overnight at 37°C, purified
T5 sequence: T3 sequence

[6] = molecular target: T6, recombinant His-C1r-CCP2-SP (residues 376-705) (human, UniProt P00736 376-705); assay: as above; conditions: both partners purified
T6 construct: complement C1r, human, CCP2-SP domains, residues 376-705 (domains as defined by UniProt P00736); also called rHIS-C1r-CCP2-SP
T6 sequence: T4 sequence

human C1 complex = molecular target: T7, human C1 complex (human, UniProt P02745 23-245; P02746 28-253; P02747 29-245); assay: SPR; Biacore T200, 25°C; borrelial protein immobilised by amine coupling (CMD200M chip); C1 as analyte, two-fold dilution series 0 to 150 nM, 2 min association, 3 min dissociation; HBS-T (20 mM HEPES pH 7.3, 140 mM NaCl, 0.005% Tween-20) with 5 mM CaCl2; 1:1 kinetic fit; triplicate; conditions: both partners purified
T7 construct: C1q subunit A, human; C1q subunit B, human; C1q subunit C, human; complement C1r, human, within the C1r2C1s2 heterotetramer; complement C1s, human, within the C1r2C1s2 heterotetramer; also called first component of complement; source: bought: Complement Technology (Tyler, TX), purified; copies: + + + 2 + 2

B1: BBK32-C (residues 206-354, B. burgdorferi strain B31) (domain or fragment)
chain: SNRYQSYLEGVKYNVDSAIQTITKIYNTYTLFSTKLTQMYSTRLDNFAKAKAKEEAAKFTKEDLEKNFKTLLNYIQVSVKTAANFVYINDTHAKRKLENIEAEIKTLIAKIKEQSNLYEAYKAIVTSILLMRDSLKEVQGIIDKNGVWY
In the case of B1, the “IC50 of C3b deposition, classical pathway-specific ELISA with normal human serum” value [1] is reported as 14 nM, the “IC50 of MAC deposition, classical pathway-specific ELISA with normal human serum” value [1] is reported as 13 nM and the “IC50 of classical pathway hemolysis of sensitized sheep red blood cells by human serum” value [1] is reported as 170 nM.

B2: BXK32-C (BBK32-C E308K-Q319K-E324Q) (domain or fragment, Borrelia burgdorferi strain B31, UniProt O50835 206-354, looked up)
chain: B1 chain with E103K, Q114K, E119Q
notes: BBK32, Borrelia burgdorferi strain B31, residues 206-354 (the limits of BBK32-C) with three residues changed to those of B. garinii BGD19; also called BBK32-E308K-Q319K-E324Q; chimeric BBK32-C; source: recombinant, E. coli codon-optimized synthetic DNA in pT7HMT, purified to homogeneity
With B2 the Kd [2] was 7.1 nM, the koff [2] was 0.00016 s⁻¹ and the kon [2] was 22000 M⁻¹ s⁻¹.

B3: BBK32-C (residues 206-354, B. burgdorferi strain B31) (domain or fragment)
chain: B1 chain
notes: BBK32, Borrelia burgdorferi sensu stricto strain B31, residues 206-354; also called BBK32(206-354); source: recombinant, sub-cloned into pT7HMT, purified to homogeneity
B3 was tested, and the Kd [2] was 5.1 nM, the koff [2] was 8.6e-05 s⁻¹ and the kon [2] was 17000 M⁻¹ s⁻¹.

B4: BBK32_((206-348)) (residues 206-348, B. burgdorferi strain B31) (domain or fragment)
chain: SNRYQSYLEGVKYNVDSAIQTITKIYNTYTLFSTKLTQMYSTRLDNFAKAKAKEEAAKFTKEDLEKNFKTLLNYIQVSVKTAANFVYINDTHAKRKLENIEAEIKTLIAKIKEQSNLYEAYKAIVTSILLMRDSLKEVQGIID
notes: BBK32 of Borrelia burgdorferi strain B31, residues 206-348 (lacks six C-terminal residues relative to BBK32-C); The deposited model holds residues 209-348; also called BBK32-C_((206-348)); crystallization construct
Binder B4 has a Kd [3] of 1.5 nM and a Kd [4] of 3.9 nM.

B5: BBK32(206-348) (residues 206-348, B. burgdorferi strain B31) (domain or fragment)
chain: B4 chain
notes: BBK32, Borrelia burgdorferi strain B31, residues 206-348 (lacks six C-terminal residues relative to BBK32-C); also called BBK32-C(206-348); source: recombinant, sub-cloned into pT7HMT, purified to homogeneity
Binder B5 has a Kd [2] of 0.75 nM, a koff [2] of 9.7e-06 s⁻¹ and a kon [2] of 13000 M⁻¹ s⁻¹. For the same binder, the koff [5] was 2.6e-05 s⁻¹, the kon [5] was 17000 M⁻¹ s⁻¹ and the koff [6] was 3.7e-05 s⁻¹. For the same binder, the kon [6] was 9400 M⁻¹ s⁻¹.

B6: BGD19-C (residues 206-354, B. garinii strain IP90) (domain or fragment)
chain: SNRYQSYLEGVKYNVDSAIKTITKIYDTYTLFLTKLTQMYSTRLDNLAKAKAKEEAAKFTKEDLEKNFKTLLNYIQVSVKTATNFVYINDTHAKRKLENIETKIKTLIAKIKEKSNLYQAYKAIVRPILLMRDSLKEVQGAIDKNGIWY
In the case of B6, the “IC50 of C3b deposition, classical pathway-specific ELISA with normal human serum” value [1] is reported as 32 nM, the “IC50 of MAC deposition, classical pathway-specific ELISA with normal human serum” value [1] is reported as 35 nM and the “IC50 of classical pathway hemolysis of sensitized sheep red blood cells by human serum; no saturable inhibition up to 1 uM” value [1] is reported as ~7600 nM.

B7: BGD19-C (residues 206-354, B. garinii strain IP90) (domain or fragment)
chain: B6 chain
Binder B7 has a Kd (human C1 complex) of 3 nM, a koff (human C1 complex) of 0.00035 s⁻¹ and a kon (human C1 complex) of 120000 M⁻¹ s⁻¹. It also gave a Kd [2] of 5.3 nM, a koff [2] of 8.1e-05 s⁻¹ and a kon [2] of 15000 M⁻¹ s⁻¹.
